{"source": "the supplement of paper PMC10126150", "note": "± gives the standard deviation of the averaged measurements.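 Also: ATP exposure 15 min at 22 °C before imaging.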", "data": [{"tested_on": "ATP", "assay": "switch fluorescence ratio, 500 uM ATP over buffer (Cy3 cluster intensity, sum of 5 cycles each) (fold (ratio)); higher = stronger signal-on switching upon ATP binding; sequences stand for … in TCGTCGGCAGCGTCAGATGTGTATAAGAGACAGTTTTTTTTTTTTTTTTTTTTTTTTT…TC", "details": "aptamer strand: ATP DNA aptamer (quencher-CACCTGGGGGAGTATTGCGGAGGAAGG + anchor), 100 nM annealed; ATP concentration: 500 uM", "how_it_was_run": "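After annealing to 100 nM quencher-labelled ATP aptamer, Cy3-labelled switching-strand clusters on a modified Illumina MiSeq flow-cell were imaged in selection buffer. A second image followed after 15 min with 500 uM ATP at 22 °C, and five such buffer/ATP cycles were done, each separated by NaOH stripping and re-annealing. The fluorescence ratio, averaged per switch-domain sequence, is summed target-cycle over summed buffer-cycle Cy3 intensity per cluster, with clusters outside 100-1000 RFU excluded.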", "values": [{"sequence": "GAGGAGACGT", "switch fluorescence ratio": "1.03 ± 0.019"}, {"sequence": "GAAAAGATTG", "switch fluorescence ratio": "0.972 ± 0.024"}, {"sequence": "CCGGGGCCTA", "switch fluorescence ratio": "1.05 ± 0.026"}, {"sequence": "TTTCAGGGAA", "switch fluorescence ratio": "0.99 ± 0.054"}, {"sequence": "GTAGTGAGGA", "switch fluorescence ratio": "1.02 ± 0.029"}, {"sequence": "GGGTTGGCTA", "switch fluorescence ratio": "0.964 ± 0.047"}, {"sequence": "TTGTTGGGTT", "switch fluorescence ratio": "1.02 ± 0.061"}, {"sequence": "GGGTTCAGAG", "switch fluorescence ratio": "1 ± 0.042"}, {"sequence": "TTGTAATTGT", "switch fluorescence ratio": "0.995 ± 0.021"}, {"sequence": "TCGGCTCTTG", "switch fluorescence ratio": "1.013 ± 0.0046"}, {"sequence": "GAGGGTTTTG", "switch fluorescence ratio": "0.9768 ± 0.0092"}, {"sequence": "TGGTTTGTGG", "switch fluorescence ratio": "0.974 ± 0.037"}, {"sequence": "TTCGGGGGGT", "switch fluorescence ratio": "1.02 ± 0.051"}, {"sequence": "TAGTGGGGAC", "switch fluorescence ratio": "0.9677 ± 0.0027"}, {"sequence": "CAGATCAGTA", "switch fluorescence ratio": "0.964 ± 0.015"}, {"sequence": "TGGCCATAGG", "switch fluorescence ratio": "0.999 ± 0.041"}, {"sequence": "GTCGTCCGGG", "switch fluorescence ratio": "0.986 ± 0.028"}, {"sequence": "GAATTAGTGT", "switch fluorescence ratio": "0.984 ± 0.019"}, {"sequence": "TGACGTTAAG", "switch fluorescence ratio": "1.03 ± 0.086"}, {"sequence": "TTGGGTTTCG", "switch fluorescence ratio": "1.01 ± 0.042"}, {"sequence": "TCACGTTCTG", "switch fluorescence ratio": "1.03 ± 0.029"}, {"sequence": "GGGGCATGGT", "switch fluorescence ratio": "1.01 ± 0.018"}, {"sequence": "TCATAGGTCA", "switch fluorescence ratio": "0.972 ± 0.024"}, {"sequence": "TGTGATGGGT", "switch fluorescence ratio": "0.996 ± 0.04"}, {"sequence": "GGTGTGACCA", "switch fluorescence ratio": "1.02 ± 0.015"}, {"sequence": "TGGGATATAT", "switch fluorescence ratio": "0.954 ± 0.034"}, {"sequence": "AGATTTTTAT", "switch fluorescence ratio": "0.983 ± 0.012"}, {"sequence": "CGGTCAATTG", "switch fluorescence ratio": "1 ± 0.036"}, {"sequence": "TAAGGAGTAA", "switch fluorescence ratio": "1.034 ± 0.01"}, {"sequence": "GGCAGAGCTG", "switch fluorescence ratio": "1.016 ± 0.01"}, {"sequence": "TGGGTTAGAT", "switch fluorescence ratio": "0.976 ± 0.025"}, {"sequence": "GGCAGTTGGG", "switch fluorescence ratio": "0.9868 ± 0.007"}, {"sequence": "ACAGGTTAGT", "switch fluorescence ratio": "0.989 ± 0.034"}, {"sequence": "ATATGGATGG", "switch fluorescence ratio": "0.986 ± 0.025"}, {"sequence": "ATGGCACTGG", "switch fluorescence ratio": "1.07 ± 0.013"}, {"sequence": "ATCGAATTTT", "switch fluorescence ratio": "1 ± 0.061"}, {"sequence": "ATGAAAGCGT", "switch fluorescence ratio": "1.032 ± 0.01"}, {"sequence": "ATTTAGGATT", "switch fluorescence ratio": "1.01 ± 0.018"}, {"sequence": "AAGGTAGGGT", "switch fluorescence ratio": "1.025 ± 0.0034"}, {"sequence": "CGCGAGGCGT", "switch fluorescence ratio": "1.07 ± 0.12"}, {"sequence": "GGAGGGGGAC", "switch fluorescence ratio": "3.13 ± 3.1"}, {"sequence": "TCATTTGTGC", "switch fluorescence ratio": "1.01 ± 0.039"}, {"sequence": "TCCAAAGGGC", "switch fluorescence ratio": "1.07 ± 0.024"}, {"sequence": "GGTTGGCGGG", "switch fluorescence ratio": "1.07 ± 0.021"}, {"sequence": "GGGCAAGGAG", "switch fluorescence ratio": "1.01 ± 0.02"}, {"sequence": "CCTGTTTTTT", "switch fluorescence ratio": "1.02 ± 0.022"}, {"sequence": "ATACTCTTAT", "switch fluorescence ratio": "1.03 ± 0.04"}, {"sequence": "CAAAATATGG", "switch fluorescence ratio": "0.984 ± 0.051"}, {"sequence": "ATGGGACAGG", "switch fluorescence ratio": "0.999 ± 0.033"}, {"sequence": "CGTTGAGTCG", "switch fluorescence ratio": "0.992 ± 0.06"}, {"sequence": "GGGCGCGGTG", "switch fluorescence ratio": "1.06 ± 0.081"}, {"sequence": "AATTTTTTGT", "switch fluorescence ratio": "1.01 ± 0.033"}, {"sequence": "TAGTTTATCA", "switch fluorescence ratio": "1.001 ± 0.01"}, {"sequence": "AGTTAAGGGT", "switch fluorescence ratio": "0.9925 ± 0.0071"}, {"sequence": "GCCCAACTGT", "switch fluorescence ratio": "1 ± 0.036"}, {"sequence": "CCCACTGGGA", "switch fluorescence ratio": "1.32 ± 0.39"}, {"sequence": "TGCTTAACAT", "switch fluorescence ratio": "1.01 ± 0.019"}, {"sequence": "GGGTATGAAG", "switch fluorescence ratio": "1.04 ± 0.049"}, {"sequence": "TATGTAATTT", "switch fluorescence ratio": "0.9932 ± 0.0092"}, {"sequence": "GGTTTAGTGA", "switch fluorescence ratio": "0.998 ± 0.034"}, {"sequence": "ATGATGGTTT", "switch fluorescence ratio": "1.02 ± 0.032"}, {"sequence": "TTCGAAGATT", "switch fluorescence ratio": "1 ± 0.051"}, {"sequence": "TCATTATGTG", "switch fluorescence ratio": "0.98 ± 0.023"}, {"sequence": "GCTCTGTGTT", "switch fluorescence ratio": "0.993 ± 0.017"}, {"sequence": "CCATGATTTG", "switch fluorescence ratio": "0.9922 ± 0.0042"}, {"sequence": "GGACAATGGG", "switch fluorescence ratio": "0.985 ± 0.033"}, {"sequence": "AAGTCGAGTC", "switch fluorescence ratio": "0.996 ± 0.018"}, {"sequence": "GCCTGGACGA", "switch fluorescence ratio": "1.04 ± 0.018"}, {"sequence": "GAGCAATTTT", "switch fluorescence ratio": "2.31 ± 0.15"}, {"sequence": "GTGGGAAAGG", "switch fluorescence ratio": "0.9715 ± 0.0057"}, {"sequence": "GGCTTAGGGG", "switch fluorescence ratio": "0.979 ± 0.022"}, {"sequence": "AAGAGTAGAT", "switch fluorescence ratio": "1.01 ± 0.017"}, {"sequence": "GGACTCGGGC", "switch fluorescence ratio": "0.985 ± 0.031"}, {"sequence": "TAAAGTTAGA", "switch fluorescence ratio": "0.989 ± 0.012"}, {"sequence": "GAGTTGGGAA", "switch fluorescence ratio": "1.04 ± 0.077"}, {"sequence": "TTTCCGATTT", "switch fluorescence ratio": "0.9886 ± 0.0024"}, {"sequence": "CAATACTTG", "switch fluorescence ratio": "1.027 ± 0.0074"}, {"sequence": "GAATTTGTTT", "switch fluorescence ratio": "0.984 ± 0.035"}, {"sequence": "TTTGGGTTCT", "switch fluorescence ratio": "1.03 ± 0.031"}, {"sequence": "ACTGTAATGT", "switch fluorescence ratio": "1.13 ± 0.011"}, {"sequence": "TGAACGGCTT", "switch fluorescence ratio": "1.04 ± 0.011"}, {"sequence": "ATGTTTTACG", "switch fluorescence ratio": "0.988 ± 0.049"}, {"sequence": "AGAGGTGGAG", "switch fluorescence ratio": "0.993 ± 0.03"}, {"sequence": "CTCTGGATTT", "switch fluorescence ratio": "0.97272 ± 0.00011"}, {"sequence": "AGGCAACGAA", "switch fluorescence ratio": "1.04 ± 0.039"}]}]}
